Experimental data reported in the DeepSol protein solubility set.

Assay: soluble on expression in E. coli; label from the status in PepcDB or PDB records

Sequence | soluble on expression in E. coli
MSLNYNAPHRHAVIELSQSAVVHNLKVIKENTHAKEIMAVLKANAFSHGLPEMASLSITAGATRFGMAMLDEALILRDLGYIQPIDVLGLTDPRYARLAAERNITLAFSTKESIKAAAEQLAGTGLTLKVSLPVDTGLNRIGFKSREDLVAAIQEVSAQDTLIFQSMWTHFATADTPNVDYVDFQISEWQRLTHDLPVEPNEKHFANTGIATWYPEKINTDIVRLGIGLFGINGSVPIMSMPFELIPALSLKAKVVNSKPLKKGDAVGYGAEYHAPNDGYLITIPIGHSDGYPFNGSGMRALVADGQIGHIVGGVAMDQSMILVTNPVAVGTTVTLIGRVGDQSITMQDLAEHTQSSIVALMNDFAPRLQRIIVSEGHHHHHH | not soluble
MVQLSLSQVHQDQIYRHGERCYPEECCGLLLGKILIGENGHRHWQVVEVQPTENCWGDVEEFQQNNHQGNKLHYFAIDPKVLLSAQKDCRQKGLSIIGIFHSHPHGQPIPSEFDRAIAWPEYIYLIASGLEHHHHHH | not soluble
MARKTKEDTQATREGILDAAEACFHEHGVARTTLEMIGARAGYTRGAVYWHFKNKSEVLAAIVERVHLPFMQELERTSTDQRDTPVHDLRAVMIHSFIELSEDERLRKTMEIMLRSDASANTRVLTEMQQAGFRDALDRMERALRRARDLGQLREGADPKIAARMLHATVLGVLHGAMVEPELMDLKRDGMLALDMTLAAYVKDGVFVPGTVPEPLPEA | soluble
MPDDEKIKLRYSPEESARLIKEEARRLGFSACGFAEAQALPPSVVGTYEKFLSEGRHGEMDYLERNRELRYSPAELLPGTRTVISVALNYYPKIKQPASAPQIAYYAYGKDYHKVVKRLLDKLLDYIRREVCPSVSGRSFSDSAPIAERYWACRAGIGWVGRSGMLILPRGGTFFFLGELLVDIDLPPDAPMPSRCGACRNCIESCPTGAISEEGMDSRLCVSYLTIEHEGEIPPELVGKLGNRFYGCDSCQLCCPWNRYAHPSEVEAFVPREALFTFDRDDLVSLDEEKYLHFFAGSPMKRAGLDGLRRNARALEQGDKKEDEQPTDEDG | not soluble
MAHHHHHHMGKRDLQKEKQQELAAIWGSEVQGDARFPKRRRAAQKQGLGAVENNDDVDTDVLSDIVSDAGSITSKHSDTAKKETRKTAKKKSTNYRLHCFVEPGTELNAVRTVFEAYEPKVEIRTAQKGNLLNKSQFAVLTFRNKAMALHAVKKLDGTNQRDLLGVSSLKLNLMLTRQQSKIARKTFNRKIRQEKERNQLMEEQADLAFIRNFLKQHSGAKKDKQNGKALSLS | soluble
MAYFTAKRASSMGASTVPSGNDHLLEALTLCDCILSRYKRCGVQLNDAEAAAFANLQQRISSISGHAADAACPAGATRKQSQELGLHEYAQLAQRCLIFQNPLAQIVATINEEFSKLVSCSVRTHYANTNDAVLCDPVHDTVATIDTSTPIGRCAKTKTTVTISDTVYIPLCYNSHVVGCLEVESTAIDTSTPFFGYLLQVAALTLQNATSIDTLRWETRKAEAMVGMATRLARDTLEESVLVQSIINTAKTLTESDRCSIFLVKADGSLEAHFEDGNVVVLPAGTGIAGHVAESGAVVNIPNAYEDDRFHRSVDKVTGYHTRTILCLPIAFEGTIVAVAQLINKLDMVTQSGQRLPRVFGRRDEELFETFSMFAAASLRNCRINETLLKEKKKSDAILDVVALLSNTDIRDVDSIVRHVLHGAKKLLNADRSSMFLLDKERNELYSKMADSANEIRFPCGQGIAGTVAESGVGENIMDAYADSRFNSAVDRQLGYRTQSILCEPITLNGEVLAVVQLVNKLGDDGSVTCFTPTDQETFKVFSLFAGISINNSHLLEFAVNAGREAMTLNLQRNSITAQRAPKSVKVIAVTPEEREAVMSIDFGGAYDFTSPGFNLFEVREKYSEPMDAAAGVVYNLLWNSGLPEKFGCREQTLLNFILQCRRRYRRVPYHNFYHVVDVCQTLHTYLYTGKASELLTELECYVLLVTALVHDLDHMGVNNSFYLKTDSPLGILSSASGNNSVLEVHHCSLAIEILSDPAADVFEGLSGQDVAYAYRALIDCVLATDMARHGDLSRVFDDMAKAGYDSNDQESRRLVMETLIKAGDVSNVTKPFETSRMWAMAVTEEFYRQGDMEKEKGVEVLPMFDRSKNNELARGQIGFIDFVAGKFFRDIVGNLFHGMQWCVDTVNSNRAKWQEILDGRRDSIRPSIV | not soluble
MNDIAHNLAQVRDKISAAATRCGRSPEEITLLAVSKTKPASAIAEAIDAGQRQFGENYVQEGVDKIRHFQELGVTGLEWHFIGPLQSNKSRLVAEHFDWCHTIDRLRIATRLNDQRPAELPPLNVLIQINISDENSKSGIQLAELDELAAAVAELPRLRLRGLMAIPAPESEYVRQFEVARQMAVAFAGLKTRYPHIDTLSLGMSDDMEAAIAAGSTMVRIGTAIFGARDYSKK | soluble
MYTAEQKARIKWACRRGMLELDVVIMPFFEECFDSLTESEQDDFVALLESDDPDLFAWVMGHGRCENLGLAAMVDKIVAHNLSKVRLEHHHHHH | soluble
MSLVDTAKVLILDDQAVSRSILSKIVRNLGRGIKTCEFSSPTEALLWAQDNTADLLLVDYEMPGMNGLCFINEITRLPQYQTVPTIMITIKQDVEIRYAALDAGVTDFLTKPVDMHECMARCKNLITLRQQRLTLEDEGHHHHHH | soluble
SLPPLNSLISQFEGRVYDQIINFNWHSKPENLKVIIIDIDEKSLEQEGRWPWPRSKIAELLNKLQENGVVTVGFDIVMSEAETNYALGLIEKLSQFSGKMTTDQKQLIATLNSVANQVDNDQTLVNALGKNNAILGFFFHNSEGIRKGSLPPPLRDTDSNPLLASKLSVYQFTNFNGNLAAFTAAATSGGFVTNLPDKDGVVRHALLLANYKNNLYPSLSLAIAMNYLLTDKVNLKKYNNELTGIELDGLQIPTNRKGQILIPFWGGPGTLNYYSATDILNNQFNPDELAGSIALVGSSITLLSDLHHTPVAQLFPGVEIVGNIVKGLVEQKIPREFDWESLQG | not soluble
MCPFDVLASVKDDPSLSPQLREKIGGALTRLREICKTADQPSVAKALPRSCAHNYFKEMISGHAPLRFSCHSSESTHTRVKHFDIASSRLPGPIVMSSSKTLMQRTTPALQSPKEIFAELNVIAFQTLRYIDEVEQIEFDVTNVREHDGSIMEDKERLFLSVCCSVFANFSFFASLHINAEKFLHFLRKLFTCYPLDNSYHNATHAADALQMMSLFFREPTVNFLFSDEEIAICFLAVLAVDVAHPGASDTLLVALDHPLASVFGDVAITEHASLLVLTSLLVLEDNFFFSTPDMAVSVDSAHLLKEALYDVVLNAALRSRPSLMSALRDIETSGRITDADAPKLMAALLVMACNSFAFRSQAQCCRMGAWFLSELHREECEMERHGIRVTLPHVAGADCAAVLSDYINVVVKPVTAATLALVPRDLQDRLEWNADLVDAAASTGGRACKVVVENSLVQWMTSSLSVMEILKKVATHASSVDRKASKCAILNASPSRSQGTAPDMMRADSLSSNSSTSGSMSAAKRDEATSNCPQLSFTSEPCSAAGSPTARPGRSEHYFSFLRLYDKCERAGESAKNFVGQLIFLALQLDPRYIAAYARKEYGDDCCGAECAEMGLLISKMEEAPSTAEVIASRPPGGSFSNRVADEIDHTDSFVLLLMDMYCSREAALAEMESVVLVSDKAKTPPPAEPAAPKAVPQFQQNSPIRMPVNTESKNTGPRLRLVP | not soluble
MKRALFVAEKNDVAKGVAAILSNGTANRREGRSKFNKIYTLNTELFGQQTAISVTSVSGHMMNFQFHENMSNWQTASMVELFRAPVRHVVTPEMKLIEQTLREQAQRHDILVVWTDCDREGEAIGAEIVKVCRDSNRRLDIFRARFSEITKAAITRAARNLIRLDEKTVAAVDCRSELDLRIGSAFTRLQTLHLRNRFRDLLGQNDTSQVISYGSCQFPTLGFVTDRYKMIENFVSEPFWKLIVEHTRESHKVEFLWDRNRLFDRDTVDILHDECKETKEAHVEKVAKKPKSKWRPQALDTVELEKLGISKLRMSAKQTMQVAEKLYSKGFISYPRTETNKFPAGLNLTPLVQQQTQSNIWGDFANEVLQNGVNPRNGRKSDEAHPPIHPLKFTEKHQLQGDDWKVYELVVRHFLACVSQDAQGEETMVNLTVGTEKFHASGLRIRDMGYLKVYVYEKWGNRLLPTYTEGERFTDFELKIGDGKTQAPDFLTEADLISLMDKYGIGTDATHAEHIEKIKTREYIGVRPDGKLIPSFLGLALVDGYDDMGFAMSKPDLRANLEIGLKEICDGRRQKQEVLDEQIGKYRAIFVESERKIGVLSQSLQRYLDKNNQAGGGPGGPGGGGGPPRGPGGGGGGGPTGPPAPPKPPAKPRGRPPRKSISPAVKNGHDDPENDTIVTLSEVFGSMSNPKPARKPRAPRKSAAPKEQEEEEEVFCQCPEPMRAVTKVVQKEGPNKGKKFYTCSLPYTSSEKCNFFKWA | not soluble
MSESFAELFEESLKTLNLQAGSIITGVIVDIDYQARWVTVHAGLKSEALIPLEQFYNDAGELSINVGDEVHVALDSVEDGFGETKLSREKAKRAECWIVLEAAFAAEEVVKGVINGKVKGGFTVDVNGIRAFLPGSLVDVRPVRDTTHLEGKELEFKVIKLDQKRNNVVVSRRSVLEAENSAEREALLESLQEGQQVKGIVKNLTDYGAFVDLGGVDGLLHITDMAWKRIKHPSEIVNVGDEIDVKVLKYDRERNRVSLGLKQLGEDPWVAIKARYPESTRVTARVTNLTDYGCFAELEEGVEGLVHVSEMDWTNKNIHPSKVVQVGDEVEVMVLDIDEERRRISLGIKQCKSNPWEDFSGQFNKGDKISGTIKSITDFGIFIGLDGGIDGLVHLSDISWNEVGEEAVRRFKKGDELDTVILSVDPERERISLGIKQLESDPFSEYVQENDKGAIVKGVVKEVDAKGAIITLANDIEATLKASEISRDRIEDARNVLKEGEEVEAKIISVDRKSRVIQLSIKSKDVEDEKEAIQSLRDKPAASDIAAGPTTLGDLLRAQMEKQN | soluble
SNAMKKKDMNKQVKIQDAVAAIILAEGPAGVSTTKVAKRVGIAQSNVYLYFKNKQALIDSVYARETNRILSTTDLDRLSDSTIDVTTRIRLYVQQVYDYSLANPDSLTIIQQIKALNGQGMTISAADADPNNIVANLLTAAIDAKVIKQLPVSLHMGVVFSTIHTHTTNISKGRYAQDQYTFGDIFQMIWDAMKQD | soluble
GSSNSHRGLAPTNVDFAFNLYQRLVALNPDKNTLISPVSISMALAMVSLGSAQTQSLQSLGFNLTETSEAEIHQSFQYLNYLLKQSDTGLEMNMGNAMFLLQKLKLKDSFLADVKQYYESEALAIDFEDWTKASQQINQHVKDKTQGKIEHVFSDLDSPASFILVNYIFLRGIWELPFSPENTREEDFYVNETSTVKVPMMVQSGSIGYFRDSVFPCQLIQMDYVGNGTAFFILPDQGQMDTVIAALSRDTIDRWGKLMTPRQVNLYIPKFSMSDTYDLKDVLEDLNIKDLLTNQSDFSGNTKDVPLTLTMVHKAMLQLDEGNVLPNSTNGAPLHLRSEPLDIKFNKPFILLLFDKFTWSSLMMSQVVNPA | soluble
MAYKFLSEDWIKAYAEEWNKNEKLMNDLKNFSASIKYYVEGKENDAVELIIEKGKAVSAGKADPNKRYDFELWASLENWKKLATGEMGPRAAMLTKRLKFKGSMITAMKYMGAFEESLKMMGRVPTVWDV | not soluble
MAQEVIKIRGGRTLNGEVNISGAKNSAVAIIPATLLAQGHVKLEGLPQISDVKTLVSLLEDLNIKASLNGTELEVDTTEIQNAALPNNKVESLRASYYMMGAMLGRFKKCVIGLPGGCPLGPRPIDQHIKGFKALGAEIDESSTTSMKIEAKELKGAHIFLDMVSVGATINIMLAAVYATGQTVIENAAKEPEVVDVANFLTSMGANIKGAGTSTIKINGVKELHGSEYQVIPDRIEAGTYMCIAAACGENVILNNIVPKHVETLTAKFSELGVNVDVRDERIRINNNAPYQFVDIKTLVYPGFATDLQQPITPLLFMANGPSFVTDTIYPERFKHVEELKRMGANIEVDEGTATIKPSTLHGAEVYASDLRAGACLIIAGLIAEGVTTIYNVKHIYRGYTDIVEHLKALGADIWTETV | not soluble
